Assay [1] deals with T1, ubiquitin (Homo sapiens (Human), UniProt P0CG47 1-76, The screen used fluorescently labelled ubiquitin. The ITC and pull-down assays used unlabelled (native) ubiquitin.).
T1 construct: Unlabeled in ITC and in the pull-down assays; also called native ubiquitin
Description: isothermal titration calorimetry in solution.

Assay [2] concerns the target T1, ubiquitin. Put plainly: isothermal titration calorimetry in solution, against NH2-RWDRYYF.
Assay [3] concerns the target T2, GST-Mdm2 (human, UniProt Q00987 1-188).
T2 construct: range 1-188; also called GST fused human Mdm2
Put plainly: protein retained on TentaGel beads with scrambled peptide, SDS-PAGE/Western blot.

In assay [4] the target is T3, GST-KIX (mouse, UniProt P45481 378-817).
T3 construct: range 378-817; also called GSTCBP(378-817); GST fusion of CBP(378-817)
Description: fluorescence polarization after adding excess unlabeled peptide. The source says: (§1) Fluorescence anisotropy measurements were taken every 30 seconds.
(§2) Complex half life of immobilized peptides and dimeric proteins. Peptide libraries are rich sources of protein-binding molecules and there exist many straightforward methods to screen such libraries. […] To test the surface-mediated avidity concept, a collection of peptides known to bind different proteins were assembled, some homodimers and some monomers.

The target of assay [5] is T4, His6-KIX (mouse, UniProt P45481 378-817).
T4 construct: range 378-817; Monomer; also called CBP(378-817) from pRSET-CBP(378-817); not shown: N-terminal His6 tag of vector pRSET-A
Described as above.
Description: as §1, §2

The target in assay [6] is T3, GST-KIX. Description: fluorescence polarization titration in solution; paragraph 167 gives this value for His6-KIX and GST-KIX.
Description: (§3) Determination of solution binding constants.
as §2

In assay [7] the target is T4, His6-KIX. Described as above.
Description: as §3, §2

In assay [8] the target is T3, GST-KIX. Description: dilution assay on TentaGel beads, Western blot. A general note: Immunoblotting shows a protein as a band on a membrane.
Assay [9] has as its target T5, His6Gal80 (UniProt P04387 1-435).
T5 construct: also called Gal80 protein; Gal 80 protein; not shown: N-terminal His6 tag from vector pProEX-1
T5 sequence (looked up): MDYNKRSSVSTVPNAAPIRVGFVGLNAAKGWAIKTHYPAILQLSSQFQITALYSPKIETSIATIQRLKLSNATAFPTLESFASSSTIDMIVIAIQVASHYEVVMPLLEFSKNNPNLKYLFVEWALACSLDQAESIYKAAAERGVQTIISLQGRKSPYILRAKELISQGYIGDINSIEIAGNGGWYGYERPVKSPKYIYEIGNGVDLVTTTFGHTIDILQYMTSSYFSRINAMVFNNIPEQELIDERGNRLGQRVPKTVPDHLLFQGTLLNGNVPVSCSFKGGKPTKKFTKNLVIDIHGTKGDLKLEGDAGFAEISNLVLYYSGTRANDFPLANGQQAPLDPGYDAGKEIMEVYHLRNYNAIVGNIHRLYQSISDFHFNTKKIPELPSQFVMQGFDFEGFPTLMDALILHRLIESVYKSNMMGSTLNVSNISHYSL
Put plainly: protein retained on TentaGel beads with scrambled peptide, SDS-PAGE/Western blot.

In assay [10] the target is T3, GST-KIX. The assay is described as above.
In assay [11] the target is maltose-binding protein (UniProt P0AEX9 27-392 = MBP). Description: fluorescence polarization titration in solution. In general terms: In fluorescence polarisation assays a small probe gives low polarisation when free and higher when bound to something large.

No end group written: not given here. Bounds are passed on as bounds.

T3 sequence (P45481 378-817): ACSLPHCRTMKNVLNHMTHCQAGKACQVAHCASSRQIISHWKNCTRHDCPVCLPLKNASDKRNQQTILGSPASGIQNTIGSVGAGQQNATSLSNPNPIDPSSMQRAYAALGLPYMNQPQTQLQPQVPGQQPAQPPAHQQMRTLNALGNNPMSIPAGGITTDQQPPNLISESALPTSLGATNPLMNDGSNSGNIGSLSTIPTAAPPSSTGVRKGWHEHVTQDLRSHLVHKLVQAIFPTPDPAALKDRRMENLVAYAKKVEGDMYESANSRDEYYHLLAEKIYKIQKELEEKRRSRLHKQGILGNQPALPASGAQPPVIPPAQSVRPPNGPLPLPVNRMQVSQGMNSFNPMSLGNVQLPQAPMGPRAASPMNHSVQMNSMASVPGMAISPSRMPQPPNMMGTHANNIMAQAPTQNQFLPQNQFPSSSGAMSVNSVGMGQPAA
T4 sequence (P45481 378-817): as above
T2 sequence (Q00987 1-188): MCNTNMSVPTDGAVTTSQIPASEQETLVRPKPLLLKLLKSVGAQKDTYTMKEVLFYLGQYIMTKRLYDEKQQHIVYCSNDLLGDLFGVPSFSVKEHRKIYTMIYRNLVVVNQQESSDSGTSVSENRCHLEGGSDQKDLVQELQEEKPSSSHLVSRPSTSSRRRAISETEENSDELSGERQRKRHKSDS

Broadly, the Kd is the concentration at which binding is half-saturated. A higher Kd goes with lower affinity. Regarding H-WGLRALESRWDRYYF (Hit of the library NH2-X7-S-RWDRYYF) [NH2-WGLRALESRWDRYYF], in [1], the Kd was determined as 12 µM. In addition, the “fold better in solution than the lead peptide” value in assay [2] is around 3 fold. Take NVKWLDPNQELPSFLTSLE (attached to TentaGel resin in the bead assays, Scrambled control of Mdm2bp) [Mdm2bpscram]: the binding result in assay [3] was “no binding (tested: 300 nM)”.

B1: KIXbp1 (peptide)
peptide: SVPGSVSWFEFWSAVDAVET
modifications: not fully specified (N-terminus); also: N-terminal carboxyfluorescein only in solution titrations, attached to TentaGel resin in bead assays
notes: Phage display 20-mer
B1: the “half-life of the complex in solution” value in [4] and in assay [5] was below 10 s in each case. Further, the dissociation constant Kd in [6] and in assay [7] was 8 µM each time. For the same molecule, the “half-life of the immobilized complex” value in [8] was above 2 h.

B2: Gal80bpscram (peptide)
peptide: DLQRDTNKGFHEMFDWDYQN
modifications: attached to TentaGel resin in the bead assays
notes: Scrambled control of Gal80bp; also called Ga180bpscram; scrambled version of Gal80 bp
As for B2, in assay [9], the binding result is listed as “no binding (tested: 300 nM)”.

B3: NH2-RWDRYYF (peptide)
peptide: H-RWDRYYF
notes: Hit of a seven residue peptide library; also called ubiquitin lead peptide; lead peptide
Molecule B3 registered a Kd in [1] of 33 µM. Consider FSASFTEVVDAGWVSPWSVE (attached to TentaGel resin in the bead assays, Scrambled control of KIXbp1) [KIXbp1scram], for which the binding result in [10] is recorded as “no binding (tested: 300 nM)”.

B4: Mdm2bp (peptide)
peptide: PLSQETFSDLWKLLPENNV
modifications: not fully specified (N-terminus, C-terminus); also: N-terminal carboxyfluorescein only in solution titrations, attached to TentaGel resin in bead assays
notes: also called p53 derived peptide; p53-derived peptide
Turning to B4, in assay [11], the binding result is on record as “no binding”.

For the origin of these results see patent publication US20040161798A1 (University of Texas, published 2004).
